{"source": "FireProtDB (doi:10.1021/bi960855h)", "proteins": {"B1": {"name": "Ribonuclease pancreatic wild type, P61823 (protein)", "chain": "MALKSLVLLSLLVLVLLLVRVQPSLGKETAAAKFERQHMDSSTSAASSSNYCNQMMKSRNLTKDRCKPVNTFVHESLADVQAVCSQKNVACKNGQTNCYQSYSTMSITDCRETGSSKYPNCAYKTTQANKHIIVACEGNPYVPVHFDASV"}}, "settings": "Bos taurus, Thermal, DSC, NaCl 200 mM, reversible: yes, whole UniProt chain shown", "key": {"[1]": {"settings": "pH 4, Acetic acid-Sodium acetate 10 mM"}, "[2]": {"settings": "pH 5, Acetic acid-Sodium acetate 10 mM"}}, "data": [{"protein": "B1", "values": [{"measurement": "Tm", "setting": "[1]", "result": 44.6, "unit": "°C"}, {"measurement": "heat capacity change of unfolding", "setting": "[1]", "result": 1.24, "unit": "kcal/mol/K"}, {"measurement": "unfolding enthalpy (calorimetric)", "setting": "[1]", "result": 94.5, "unit": "kcal/mol"}, {"measurement": "unfolding enthalpy (van 't Hoff)", "setting": "[1]", "result": 98.1, "unit": "kcal/mol"}, {"measurement": "Tm", "setting": "[2]", "result": 45.5, "unit": "°C"}, {"measurement": "heat capacity change of unfolding", "setting": "[2]", "result": 1.2, "unit": "kcal/mol/K"}, {"measurement": "unfolding enthalpy (calorimetric)", "setting": "[2]", "result": 95.7, "unit": "kcal/mol"}, {"measurement": "unfolding enthalpy (van 't Hoff)", "setting": "[2]", "result": 96.9, "unit": "kcal/mol"}, {"measurement": "Tm", "setting": "pH 6, MES 10 mM", "result": 46.8, "unit": "°C"}, {"measurement": "heat capacity change of unfolding", "setting": "pH 6, MES 10 mM", "result": 1.17, "unit": "kcal/mol/K"}, {"measurement": "unfolding enthalpy (calorimetric)", "setting": "pH 6, MES 10 mM", "result": 98.1, "unit": "kcal/mol"}, {"measurement": "unfolding enthalpy (van 't Hoff)", "setting": "pH 6, MES 10 mM", "result": 100, "unit": "kcal/mol"}, {"measurement": "Tm", "setting": "pH 6.5, MES 10 mM", "result": 47.2, "unit": "°C"}, {"measurement": "heat capacity change of unfolding", "setting": "pH 6.5, MES 10 mM", "result": 1.22, "unit": "kcal/mol/K"}, {"measurement": "unfolding enthalpy (calorimetric)", "setting": "pH 6.5, MES 10 mM", "result": 99.3, "unit": "kcal/mol"}, {"measurement": "unfolding enthalpy (van 't Hoff)", "setting": "pH 6.5, MES 10 mM", "result": 100, "unit": "kcal/mol"}, {"measurement": "Tm", "setting": "pH 7, MOPS 10 mM", "result": 50.1, "unit": "°C"}, {"measurement": "heat capacity change of unfolding", "setting": "pH 7, MOPS 10 mM", "result": 1.22, "unit": "kcal/mol/K"}, {"measurement": "unfolding enthalpy (calorimetric)", "setting": "pH 7, MOPS 10 mM", "result": 103, "unit": "kcal/mol"}, {"measurement": "unfolding enthalpy (van 't Hoff)", "setting": "pH 7, MOPS 10 mM", "result": 102, "unit": "kcal/mol"}, {"measurement": "Tm", "setting": "pH 7.5, MOPS 10 mM", "result": 50.6, "unit": "°C"}, {"measurement": "heat capacity change of unfolding", "setting": "pH 7.5, MOPS 10 mM", "result": 1.2, "unit": "kcal/mol/K"}, {"measurement": "unfolding enthalpy (calorimetric)", "setting": "pH 7.5, MOPS 10 mM", "result": 104, "unit": "kcal/mol"}, {"measurement": "unfolding enthalpy (van 't Hoff)", "setting": "pH 7.5, MOPS 10 mM", "result": 105, "unit": "kcal/mol"}]}]}
